Patent US20170189513A1

The binders below were run against HLA-A*24 (human) (assay: UV-ligand exchange, b2m ELISA).

Binder | peptide exchange yield [%]
YYKSTSSAF [… (SEQ ID No 218)] | 50 to 75
AYVVFVSTL [… (SEQ ID No 207)] | 20 to 49
TYKDEGNDYF [… (SEQ ID No 209)] | 50 to 75
PYRLIFEKF [… (SEQ ID No 281)] | 20 to 49
TYELRYFQI [… (SEQ ID No 204)] | > 75
LYITEPKTI [… (SEQ ID No 287)] | 50 to 75
IYATEAHVF [… (SEQ ID No 201)] | 50 to 75
HYPPVQVLF [… (SEQ ID No 285)] | 50 to 75
NYYEVHKELF [… (SEQ ID No 270)] | 50 to 75
YFIDSTNLKTHF [… (SEQ ID No 269)] | 50 to 75
VYWDSAGAAHF [… (SEQ ID No 202)] | > 75
QYLGQIQHI [… (SEQ ID No 268)] | 50 to 75
TFSVSSHLF [… (SEQ ID No 222)] | 50 to 75
YYGPSLFLL [… (SEQ ID No 200)] | 50 to 75
RYAEEVGIF [… (SEQ ID No 199)] | 50 to 75
VYQGHTALL [… (SEQ ID No 277)] | > 75
